Experimental data published in publication PMC11736007.

Biological target: Orai1β-eGFP (UniProt Q96D31)
Test: co-IP; Orai1-KO MCF7 cells co-transfected with an Orai1 variant and mCherry-SPCA2; lysis in 1% IGEPAL CA-630 buffer pH 8; immunoprecipitation with anti-Orai1 antibody and protein A-agarose at 4 °C overnight; Western blot with anti-mCherry; signal normalised to input and to immunoprecipitated Orai1

Chain of UniProt Q96D31 (Q96D31 64-301): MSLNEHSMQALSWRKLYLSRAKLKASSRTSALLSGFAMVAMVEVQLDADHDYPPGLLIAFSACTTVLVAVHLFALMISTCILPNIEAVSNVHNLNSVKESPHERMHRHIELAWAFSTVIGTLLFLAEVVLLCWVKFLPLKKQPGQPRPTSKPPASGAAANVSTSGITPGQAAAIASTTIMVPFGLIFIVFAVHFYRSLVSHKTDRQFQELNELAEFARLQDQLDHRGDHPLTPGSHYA

B1: mCherry-SPCA2 (natural protein)
chain: MVEGRVSEFLKKLGFSGGGRQYQALEKDEEEALIDEQSELKAIEKEKKVTALPPKEACKCQKEDLARAFCVDLHTGLSEFSVTQRRLAHGWNEFVADNSEPVWKKYLDQFKNPLILLLLGSALVSVLTKEYEDAVSIATAVLVVVTVAFIQEYRSEKSLEELTKLVPPECNCLREGKLQHLLARELVPGDVVSLSIGDRIPADIRLTEVTDLLVDESSFTGEAEPCSKTDSPLTGGGDLTTLSNIVFMGTLVQYGRGQGVVIGTGESSQFGEVFKMMQAEETPKTPLQKSMDRLGKQLTLFSFGIIGLIMLIGWSQGKQLLSMFTIGVSLAVAAIPEGLPIVVMVTLVLGVLRMAKKRVIVKKLPIVETLGCCSVLCSDKTGTLTANEMTVTQLVTSDGLRAEVSGVGYDGQGTVCLLPSKEVIKEFSNVSVGKLVEAGCVANNAVIRKNAVMGQPTEGALMALAMKMDLSDIKNSYIRKKEIPFSSEQKWMAVKCSLKTEDQEDIYFMKGALEEVIRYCTMYNNGGIPLPLTPQQRSFCLQEEKRMGSLGLRVLALASGPELGRLTFLGLVGIIDPPRVGVKEAVQVLSESGVSVKMITGDALETALAIGRNIGLCNGKLQAMSGEEVDSVEKGELADRVGKVSVFFRTSPKHKLKIIKALQESGAIVAMTGDGVNDAVALKSADIGIAMGQTGTDVSKEAANMILVDDDFSAIMNAVEEGKGIFYNIKNFVRFQLSTSISALSLITLSTVFNLPSPLNAMQILWINIIMDGPPAQSLGVEPVDKDAFRQPPRSVRDTILSRALILKILMSAAIIISGTLFIFWKEMPEDRASTPRTTTMTFTCFVFFDLFNALTCRSQTKLIFEIGFLRNHMFLYSVLGSILGQLAVIYIPPLQRVFQTENLGALDLLFLTGLASSVFILSELLKLCEKYCCSPKRVQMHPEDV
- percent decrease of co-precipitated SPCA2 against Orai1α: 63%
